The source of these data is patent US20170224771A1, “HISTATINS AS THERAPEUTIC AGENTS FOR OCULAR SURFACE DISEASE” (RAPID PATHOGEN SCREENING, INC., priority 2014, published 2017).

Data set [1] relates to cultured ocular epithelial cells. To be noted: cultured ocular epithelial cells in vitro; cited from earlier work.
The nature of data set [2]: Stability of ocular histatin formulation, determined by mass spectroscopy. To be noted: 100 μg/mL in commercially-available gel tears lubricating eye drop with 0.25% PEG in aqueous buffered borate salt solution. Format: physicochemical. Here is the method:
In some embodiments, the ocular histatin formulation is stable both at room temperature (25° C.) and at 45° C. for at least 90 days.

In the next data set the target is T1, MMP-2 (Homo sapiens, UniProt P08253).
T1 sequence (P08253 110-660): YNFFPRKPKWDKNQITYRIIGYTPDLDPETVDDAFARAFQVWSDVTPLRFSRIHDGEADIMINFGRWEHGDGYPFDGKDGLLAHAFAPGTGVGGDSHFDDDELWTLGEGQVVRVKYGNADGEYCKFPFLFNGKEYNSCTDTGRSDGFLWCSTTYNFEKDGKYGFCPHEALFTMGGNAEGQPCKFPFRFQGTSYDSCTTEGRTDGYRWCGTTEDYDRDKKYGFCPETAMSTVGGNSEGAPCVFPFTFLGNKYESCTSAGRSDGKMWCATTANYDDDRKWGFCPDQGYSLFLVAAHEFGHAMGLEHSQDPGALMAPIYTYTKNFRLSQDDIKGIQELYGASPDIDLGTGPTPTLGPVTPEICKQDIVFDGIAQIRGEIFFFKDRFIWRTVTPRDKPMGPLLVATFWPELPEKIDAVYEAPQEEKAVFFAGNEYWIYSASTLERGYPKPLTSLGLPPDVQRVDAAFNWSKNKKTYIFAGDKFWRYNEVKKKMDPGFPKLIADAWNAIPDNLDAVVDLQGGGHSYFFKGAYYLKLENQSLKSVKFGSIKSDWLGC
To be noted: host protease; according to Gusman; cited from earlier work.

The target in another data set is MMP-9 (Homo sapiens, UniProt P14780). To be noted: host protease; according to Gusman; cited from earlier work.
Sequence of MMP-9 (P14780 94-707): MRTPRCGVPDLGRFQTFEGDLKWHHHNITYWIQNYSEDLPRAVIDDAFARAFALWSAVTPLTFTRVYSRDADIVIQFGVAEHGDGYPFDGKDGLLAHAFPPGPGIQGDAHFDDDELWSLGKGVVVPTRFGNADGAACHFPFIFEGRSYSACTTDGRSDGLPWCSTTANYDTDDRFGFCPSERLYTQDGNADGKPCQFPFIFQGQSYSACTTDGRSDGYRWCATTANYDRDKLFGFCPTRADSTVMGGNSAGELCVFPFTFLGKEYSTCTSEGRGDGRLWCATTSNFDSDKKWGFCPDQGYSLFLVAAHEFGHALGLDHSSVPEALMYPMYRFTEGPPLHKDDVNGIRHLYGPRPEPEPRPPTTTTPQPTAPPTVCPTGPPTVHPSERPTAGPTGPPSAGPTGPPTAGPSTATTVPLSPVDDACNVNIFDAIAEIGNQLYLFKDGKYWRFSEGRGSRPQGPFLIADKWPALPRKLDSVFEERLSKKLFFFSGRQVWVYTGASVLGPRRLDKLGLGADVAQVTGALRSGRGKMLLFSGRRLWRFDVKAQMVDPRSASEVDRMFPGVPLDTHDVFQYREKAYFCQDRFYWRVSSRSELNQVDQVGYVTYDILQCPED

In the case of Benzalkonium chloride, the cytotoxicity entry in data set [1] is given as “significant cytotoxicity”.
In the case of “cyclized histatin 1: sortase cyclized histatin (including all of Histatin 1) (GGDSHEKRHHGYRRKFHEKHHSHREFPFYGDYGSNYLYDNLPET; sortase cyclization)”, the entries for the “time found to be stable” value in data set [2] (25° C.) and in data set [2] (45° C.) were “at least 505 days” and “at least 90 days”, respectively.
As for “histatin 5: naturally occurring oral salivary peptide; SEQ ID NO: 30 peptide”, the “inhibition of MMP-2 activity” value in the data set with MMP-2 is “greatly inhibited”. In addition, the “inhibition of MMP-9 activity” value in the data set with MMP-9 is listed as “greatly inhibited”.
